Test results taken from the DeepSol protein solubility set.

Assay: soluble on expression in E. coli; label from the status in PepcDB or PDB records
For “MSLNRPLRIGIVVGELSGDTLGEGFIKAIRARYPDAEFVGIGGPKMNALGCQSLFDMEELAVMGLVEVLGRLPRLLKVKAELVKYFTANPPDVFVGIDAPDFNLRLELSLKQAGIKTVHYVSPSVWAWRQNRIHGIAAATHLVLAFLPFEKAFYDKFNVPCEFIGHTLADSIPLASDKLAARQLLGLDEQRRWLAVLPGSRGSEMKMLAEPFIATCQKLQARYPDLGFVVALVNAKRRAQFEQAWQQVAPELNFVLVDDTARNVITAADAVMLASGTVALECMLLKRPMVVGYRVNAFTAFLAKRLLKTPYVSLPNILAGEELVKELLQDHCTVDNLYHEVSRLLESDNQALMDKFTEMHQWIRKDADQQAAQAVLHLIQKEGHHHHHH”, the “soluble on expression in E. coli” value was “not soluble”. With “MSLNRVLDILKDRSLTYHQQIKDLAAYAESTIEVLNIDDETKKLIDEGCICTLFEGNAPFRPRYIIPDYSLLMEKGCEFLNLSVPEDIWEATNNLLIFYKHVPSITTFPVYLGNIDELLEPFIEDEREAKRAIKLFLKHIDRTLTDSFVHANIGPRETVAGRLILESMDELQCAVPNLSMKYDLENTPESFINLCAKVALSTAKPSFANHKMDVKSFGTDRYAIASCYNGFHIGGGGYTLVRIKLNEVAKKATSVEDFLENVLPYVSTKMIQYIDERIRFLVEETQFFTSNFLVKEGFIQKKLFTGMFGVVGLAEAVNTLLGAEKQSDRFGYSEKANKLGLRIIEKLNKIVSEHEAKHVNCFGGHYVLHAQVGIDLDQNVSPGCRIPVGEEPELFNHIMQSAPFHKYFYNGIGDIFVFEDTYNDHPEALVDIIKGAFNSGIRYMSVYGSGADVVRVTGYLAKRSEVEKLERGEAVLNNTDLFAMGAKNNCHAFERKIREGHHHHHH” the “soluble on expression in E. coli” value was “soluble”. For “MSLNSESLGLLQEFLKTHKYKEFRDQAKNLRAPFILQAIVSTPTTVKYYTQGRLIKCCETDSTGNITTSYTYNDKGQLTTTLSVTEKNGQPINEVQTSRLYDPQGHCIFEVKTNPKTKTDFYRRARRIGIDGSIESDSLKYMDGRYTVSSYNKQGLLTETKEYNKNGEMEGYTVNKYDDKGRMTESQHQNMLFVNSPNQILSQKELYEYDKYGYLTRIVYQRIFGNSQKTSGCLTCLYDEYGNRIDGDSYYEYDNTGQWICRTSYDNPQQVERIQYIYKEGHHHHHH”, the “soluble on expression in E. coli” value was “not soluble”. With “MSLNSIKDVDLSEITAGKKYWNVERPVEEEVMYFLLIDRFHDGKERISIPSTTGFGNTDQLQARCGGTIQGVIKNLKYISALGFTSIWINPFLQNNPETYHGYSIENFLEVDAQWGTKEDIVELVAQAHKLHIKVFFDIVLNHTGNNWSYVKENPRYNKGKQYAVKAWRYPDRPIPAELRNLNLYGRKGGIVKWEETPETWDGDIFELKDLIQDDSEIGHATLEILIAVYSYWFAVTDCDGFRIDAAKHIPPKWLNTFVDAMKALTASVHKTSFFIFAEIISNQSYISKYHTIDGYLDFDFHFSFVPNMYGEKKRKSAIQSQPRPVDKVPIRFLDNHDQVGQMPKHRIAYRMKEKALCNLLRAFLCMPGIPCIYYGTEQGLKGKGILDGSIRECLFNPDGKEDILNLDSPYARVIKEGIHLRKKLNLYTGDFQSCEIMAAKSHRCIALQVNGLASSKLIVYNLGPHNEVVSIKLSSPLTRTNKLVVYLYSNGDADNDDKTVVNDILHNITMHPYGFKVLELLNHQESVNEGHHHHHH” the “soluble on expression in E. coli” value was “soluble”. For “MSLNTREKYLSNVNRLVIKVGSSTLTHPSGLLNFYKIEHIVRQIADLHNQGIKVILVSSGAIGAGIGKLRLKERPKTIPEKQAAAAVGQGVLMHTYEKLFAEYGQIVGQILITREDLSSKKRVVNVQNTFSALLDHGIIPIVNENDATVVEEIKFGDNDTLSARVASLIKADLLILLSDIDGLYDSNPAVNKNAVLIDTVNEVNEEVKASAGGAGSKLGTGGMATKIRAAEIATENGISMVIANGEKQEAIRNILNFENEGTLFIPKNKEGHHHHHH”, the “soluble on expression in E. coli” value was “soluble”. In the case of “MSLNYNTPKVSIVVPSLNSISYIRECIDSILNQTLKDIEILCIDANSTDGTLEVLKNYEKKDKRLRVIISDKKSYGYQMNLGIKEAKGEYLGIVESDDYIKTNMYERLYEIAKKNDCEVVKGDFYIFAYGKTEYVNVLRNSCEDIYNYKVNWNKDIRIFLGSDGINPIGIYRLDLLRTNQIKLNETPGASYQDNGLWFQIFALAKSIYFINEAFYMLRRDNPNSSVKSKEKVYCACEEYDFIRDFLKKHPDLEKTLAPICALHRFGNYMFTLERIDERYKLDFLKRFSQDFRKILKDKELDENLFGNINMQRINKIIENPVIYYYFSRGARARLQNQLVYRLGKVVVEAKSFNKIIKLPFLMLKICLEHNFEHKVYRSIVQFRPDLKLLPLECYLDYHEALVIKEHLSYKFGKLILLSFKGWYKGKIFILPFMLKKRYKEYKNKMEGHHHHHH”, the “soluble on expression in E. coli” value is reported as “soluble”. With “MSLQEIIGASLVFLCNEKCEVLEDYGVVFDEKIVEIGDYQSLTLKYPHLKAQFFENSVLLPAFINAHTHFEFSNNKASFDYGSFSGWLGSVLNNGGAILENCQGAIQNAISTQLKSGVGSVGAISNHLIEVNLLKESPLNAVVFLEFLGSSYSLEKLKAFEAKFKELKDLEDKKLKAALAVHAPYSVQKDMALSVIQLAKDSQSLLSTHFLESLEELEWVENSKGWFENFYQHFLKESHFKSLYKGANDYIDMFKDTHTLFVHNQFASLEALKRIKSQVKNAFLITCPFSNRLLSGQALDLERTKEAGLSVSVATDGLSSNISLSLLDELRAFLLTHNMPLLELAKIALLGATRHGAKALALNNGEIEANKRADLSVFGFNEKFTKEQAILQFLLHAKEVECLFLGGKRVIEGHHHHHH” the “soluble on expression in E. coli” value was “soluble”. For “MSLQELPVPKPHQLKWHEAEMGAVFHYDLHVFDGIRYGQGNNRINPIEDYNIFNPTELNTDQWVQAAKAAGCKFAVLTATHETGFGLWQSDVNPYCLKAVKWRDGKGDIVRDFVNSCRKYGLQPGIYIGIRWNSLLGIHNFKAEGEGAFARNRQAWYKRLCEKMVTELCTRYGDLYMIWFDGGADDPRADGPDVEPIVNKYQPNCLFYHNIDRADFRWGGSETGTVEYPCWSTFPVPCSHHKRIESSIDQLELLKHGDKNGRYWVPAMADTPLRGANGRHEWFWEPDDENNIYPLNTLMDKYEKSVGRNATLILGLTPDPTGLIPAGDAQRLKEMGDEINRRFSSPIARISGQKKSLTLKLGKEQSVNYCIIQENIKNGERIRQYQIEAKVNGKWQTVCKGESVGHKRIEKFEPVEATALRLTVSESIALPDIINFSAYSVKEGHHHHHH”, the “soluble on expression in E. coli” value was “soluble”. For “MSLQFVSKARKGLVPQRCHRFQSCAYRSNQWRYRGRCDSIQFAVDKRVFIAGFGLYGSSCGSAEYSAKIEMKRQGVVLGQNLSKYFSDGSSNTFPVWFEYPVQIEPDTFYTASVILDGNELSYFGQEGMTEVQCGKVTVQFQCSSDSTNGTGVQGGQIPELIFYAEGHHHHHH”, the “soluble on expression in E. coli” value was “not soluble”. For “MSLQIVPYLIFNGNCREAFSCYHQHLGGTLEAMLPFGDSPECGDIPADWKDKIMHARLVVGSFALMASDNHPAYPYEGIKGCSISLNVDSKAEAERLFNALAEGGSVQMPLGPTFWAASFGMFTDRFGVAWMVNCEQDREGGSHHHHHH”, the “soluble on expression in E. coli” value was “soluble”. In the case of “MSLQKTSFALLVAALQLASASALAATPPVADAIWFNGPIITIDDQHPKAQAVAVKDGKILAVGDRQHVLKNKGPATQMLDLKGATLLPGFVDPHGHVSMVGFQAASANLLPPPDGTNNSIPGLQETLRRFEQQSPIPKQFGVLFGFGYDDSQLQEQRHPTKADLDAVTRDLPIAIVHQSSHLGVLNSKALELAGIDASTPNPEGGVIRRVDGSQEPNGVLEENAFFNALIRIFPKLTADQAVDMLSAGQKLYVSYGYTTIQDGRSSPDQVKTAIKAAGDGKLLADIVSYPDILTPGVKQLMVAPWYHPSNQPVVYNQHFRIGGVKLTLDGSPQGKTAWLSQPYFKPPQGQDASYAGYGVVKDADALAIYKEALANRWQILSHTNGDRAIDQLLGSMRAAEQAYPGVDVRPVMIHGQTLRKDQVAELKQLKIFPSLFPMHTYYWGDWHRQSVLGPERAENISPTQWVLQAGMKFTTHHDAPVALPDSMRVLAATVNRTTRSGYVLGPDQRVTPLQALKAMTLWSAYQHFEEDRKGSITPGKLADFAVLSANPLTVKPETLSEIQVLKTVKEGRVIYERPAKVASEGHHHHHH”, the “soluble on expression in E. coli” value is reported as “soluble”. In the case of “MSLQLRSRAAFKLEFLLDRYRVVRKGDAVIEIGSSPGGWTQVLNSLARKIISIDLQEMEEIAGVRFIRCDIFKETIFDDIDRALREEGIEKVDDVVSDAMAKVSGIPSRDHAVSYQIGQRVMEIAVRYLRNGGNVLLKQFQGDMTNDFIAIWRKNFSSYKISKPPASRGSSSEIYIMFFGFKAEGHHHHHH”, the “soluble on expression in E. coli” value is reported as “soluble”.
